B1: Histone-lysine N-methyltransferase 2A, residues 1148 to 1194; numbered along this chain, Q03164 (parent)
chain: KGRRSRRCGQCPGCQVPEDCGVCTNCLDKPKFGGRNIKKQCCKMRKC

± gives the uncertainty stated by the source.

In the series the parent is B1. Put plainly: abundance fitness (aPCA) (normalised: wild type 0, dead -1); higher = more abundant; growth selection in yeast, the domain comes from the species named. The conditions noted are these: Homo sapiens.
Regarding KGRRSRRCGQCPGCQVPEDWGVCTNCLDKPKFGGRNIKKQCCKMRKC [C20W], the abundance fitness is -0.95 ± 0.14. The result for KGRRSRRCGQCPGCQVPEDYGVCTNCLDKPKFGGRNIKKQCCKMRKC [C20Y] reads -0.994 ± 0.15; that for KGRRSRRCGQCPGCQVPEDMGVCTNCLDKPKFGGRNIKKQCCKMRKC [C20M], -0.925 ± 0.17. As to KGRRSRRCGQCPGCQVPEDQGVCTNCLDKPKFGGRNIKKQCCKMRKC [C20Q], the abundance fitness was -0.866 ± 0.17. To KGRRSRRCGQCPGCQVPEDPGVCTNCLDKPKFGGRNIKKQCCKMRKC [C20P] belongs -0.947 ± 0.21.

Consider KGRRSRRCGQCPGCQVPEDRGVCTNCLDKPKFGGRNIKKQCCKMRKC [C20R], for which the abundance fitness is -0.654 ± 0.11. To KGRRSRRCGQCPGCQVPEDHGVCTNCLDKPKFGGRNIKKQCCKMRKC [C20H] belongs -0.97 ± 0.28; to KGRRSRRCGQCPGCQVPEDTGVCTNCLDKPKFGGRNIKKQCCKMRKC [C20T], -0.753 ± 0.13; to KGRRSRRCGQCPGCQVPEDKGVCTNCLDKPKFGGRNIKKQCCKMRKC [C20K], -0.594 ± 0.15. The result for KGRRSRRCGQCPGCQVPEDNGVCTNCLDKPKFGGRNIKKQCCKMRKC [C20N] reads -0.898 ± 0.23; that for KGRRSRRCGQCPGCQVPEDIGVCTNCLDKPKFGGRNIKKQCCKMRKC [C20I], -0.895 ± 0.23. KGRRSRRCGQCPGCQVPEDCLVCTNCLDKPKFGGRNIKKQCCKMRKC [G21L]: the abundance fitness was -0.626 ± 0.098. To KGRRSRRCGQCPGCQVPEDCHVCTNCLDKPKFGGRNIKKQCCKMRKC [G21H] belongs -0.375 ± 0.19; to KGRRSRRCGQCPGCQVPEDCTVCTNCLDKPKFGGRNIKKQCCKMRKC [G21T], -0.894 ± 0.16; to KGRRSRRCGQCPGCQVPEDCSVCTNCLDKPKFGGRNIKKQCCKMRKC [G21S], -0.542 ± 0.096. The result for KGRRSRRCGQCPGCQVPEDCVVCTNCLDKPKFGGRNIKKQCCKMRKC [G21V] reads -0.7 ± 0.1; that for KGRRSRRCGQCPGCQVPEDCYVCTNCLDKPKFGGRNIKKQCCKMRKC [G21Y], -0.769 ± 0.19; that for KGRRSRRCGQCPGCQVPEDCWVCTNCLDKPKFGGRNIKKQCCKMRKC [G21W], -0.88 ± 0.15. For KGRRSRRCGQCPGCQVPEDCCVCTNCLDKPKFGGRNIKKQCCKMRKC [G21C], the abundance fitness is -0.805 ± 0.16. With KGRRSRRCGQCPGCQVPEDCRVCTNCLDKPKFGGRNIKKQCCKMRKC [G21R], the abundance fitness was -0.416 ± 0.09.

KGRRSRRCGQCPGCQVPEDCDVCTNCLDKPKFGGRNIKKQCCKMRKC [G21D]: the abundance fitness is -0.872 ± 0.15. The result for KGRRSRRCGQCPGCQVPEDCPVCTNCLDKPKFGGRNIKKQCCKMRKC [G21P] reads -0.857 ± 0.14; that for KGRRSRRCGQCPGCQVPEDCFVCTNCLDKPKFGGRNIKKQCCKMRKC [G21F], -0.684 ± 0.2; that for KGRRSRRCGQCPGCQVPEDCNVCTNCLDKPKFGGRNIKKQCCKMRKC [G21N], -0.767 ± 0.27. The result for KGRRSRRCGQCPGCQVPEDCIVCTNCLDKPKFGGRNIKKQCCKMRKC [G21I] reads -0.995 ± 0.24; that for KGRRSRRCGQCPGCQVPEDCEVCTNCLDKPKFGGRNIKKQCCKMRKC [G21E], -0.677 ± 0.16; that for KGRRSRRCGQCPGCQVPEDCMVCTNCLDKPKFGGRNIKKQCCKMRKC [G21M], -0.278 ± 0.13.

KGRRSRRCGQCPGCQVPEDCQVCTNCLDKPKFGGRNIKKQCCKMRKC [G21Q]: the abundance fitness is -0.918 ± 0.17.

As to KGRRSRRCGQCPGCQVPEDCGVCTNDLDKPKFGGRNIKKQCCKMRKC [C26D], the abundance fitness was -0.76 ± 0.18.

As to KGRRSRRCGQCPGCQVPEDCGVCTNALDKPKFGGRNIKKQCCKMRKC [C26A], the abundance fitness was -0.914 ± 0.15. To KGRRSRRCGQCPGCQVPEDCGVCTNFLDKPKFGGRNIKKQCCKMRKC [C26F] belongs -0.991 ± 0.27; to KGRRSRRCGQCPGCQVPEDCGVCTNELDKPKFGGRNIKKQCCKMRKC [C26E], -0.81 ± 0.18; to KGRRSRRCGQCPGCQVPEVCGVCTNCLDKPKFGGRNIKKQCCKMRKC [D19V], -0.901 ± 0.11. Regarding KGRRSRRCGQCPGCQVPEQCGVCTNCLDKPKFGGRNIKKQCCKMRKC [D19Q], the abundance fitness was -1.05 ± 0.19. Consider KGRRSRRCGQCPGCQVPEYCGVCTNCLDKPKFGGRNIKKQCCKMRKC [D19Y], for which the abundance fitness is -0.859 ± 0.21. To KGRRSRRCGQCPGCQVPEWCGVCTNCLDKPKFGGRNIKKQCCKMRKC [D19W] belongs -0.861 ± 0.2; to KGRRSRRCGQCPGCQVPERCGVCTNCLDKPKFGGRNIKKQCCKMRKC [D19R], -0.775 ± 0.12.

Turning to KGRRSRRCGQCPGCQVPEPCGVCTNCLDKPKFGGRNIKKQCCKMRKC [D19P], the abundance fitness was -0.935 ± 0.16. To KGRRSRRCGQCPGCQVPETCGVCTNCLDKPKFGGRNIKKQCCKMRKC [D19T] belongs -0.865 ± 0.16; to KGRRSRRCGQCPGCQVPEDCGVCTACLDKPKFGGRNIKKQCCKMRKC [N25A], -0.078 ± 0.082. The result for KGRRSRRCGQCPGCQVPEDCGVCTRCLDKPKFGGRNIKKQCCKMRKC [N25R] reads -0.599 ± 0.084; that for KGRRSRRCGQCPGCQVPEDCGVCTKCLDKPKFGGRNIKKQCCKMRKC [N25K], -0.633 ± 0.15. The result for KGRRSRRCGQCPGCQVPEDCGVCTVCLDKPKFGGRNIKKQCCKMRKC [N25V] reads -0.02 ± 0.095. For KGRRSRRCGQCPGCQVPEDCGVCTLCLDKPKFGGRNIKKQCCKMRKC [N25L], the abundance fitness is -0.536 ± 0.085. The result for KGRRSRRCGQCPGCQVPEDCGVCTQCLDKPKFGGRNIKKQCCKMRKC [N25Q] reads -0.481 ± 0.12; that for KGRRSRRCGQCPGCQVPEDCGVCTHCLDKPKFGGRNIKKQCCKMRKC [N25H], -0.374 ± 0.14; that for KGRRSRRCGQCPGCQVPEDCGVCTSCLDKPKFGGRNIKKQCCKMRKC [N25S], 0.024 ± 0.083. To KGRRSRRCGQCPGCQVPEDCGVCTMCLDKPKFGGRNIKKQCCKMRKC [N25M] belongs -0.084 ± 0.1; to KGRRSRRCGQCPGCQVPEDCGVCTWCLDKPKFGGRNIKKQCCKMRKC [N25W], -0.107 ± 0.1.

Consider KGRRSRRCGQCPGCQVPEDCGVCTTCLDKPKFGGRNIKKQCCKMRKC [N25T], for which the abundance fitness was -0.325 ± 0.1. Consider KGRRSRRCGQCPGCQVPEDCGVCTGCLDKPKFGGRNIKKQCCKMRKC [N25G], for which the abundance fitness was -0.342 ± 0.091. In the case of KGRRSRRCGQCPGCQVPEDCGVCTICLDKPKFGGRNIKKQCCKMRKC [N25I], the abundance fitness was determined as 0.121 ± 0.13.

On to KGRRSRRCGQCPGCQVPEDCGVCTFCLDKPKFGGRNIKKQCCKMRKC [N25F], for which the abundance fitness was -0.377 ± 0.14. Regarding KGRRSRRCGQCPGCQVPEDCGVCTDCLDKPKFGGRNIKKQCCKMRKC [N25D], the abundance fitness is -0.233 ± 0.15.

Take KGRRSRRCGQCPGCQVPEDCGVCTYCLDKPKFGGRNIKKQCCKMRKC [N25Y]: the abundance fitness was -0.148 ± 0.12.
